Experimental data taken from patent US9624471B2, “Methods for maturing cardiomyocytes and uses thereof” (UNIVERSITY OF WASHINGTON THROUGH ITS CENTER FOR …, priority 2013, dated 2017).

Key:
[1] = tested on: HECT293FT cells; test: Lipofectamine transient transfection of plko-let-7g and plko-let-7g-E plasmids, mature let-7g and target expression after 24 hrs; format: cell-based; conditions: 24 hrs after transfection
Experimental: FIGS. 20A-20B Modified let-7g (let-7g-E) is more efficient in generating mature let-7g in HECT293FT cells. Let-7g and a modified version of let-7g (plko-let-7g-E) were induced in hect 293 FT cells by introducing plko-let-7g and plko-let-7g-E plasmids with lipofectamine transient transfection assay. 24 hrs after transfection, cells were tested for mature let-7g expression. […] (FIG. 20B) Targets of let-7 are repressed when we over-express let-7g-E similar to that seen during over-expression of let-7g.

[2] = tested on: let-7g OE CMs; test: Whole genome transcriptome profiling (ILLUMINA RNA sequencing) of let-7g OE CMs vs. EV control CMs; format: cell-based, human
Source text: To further understand the effects of let-7 OE during cardiomyocyte maturation at a molecular level, the inventors carried out whole genome transcriptome profiling of let-7g OE CMs and corresponding EV control CMs using an ILLUMINA™ RNA sequencing platform. […] Using expression values for the genes that belonged to the 12 pathways (FIG. 1E), the inventors carried out a 2D-PCA comparing let-7g OE CMs and EV control CMs with H7-CMs at day 20 and 1 yr, IMR90iPSC-CMs at 1 yr and 3 month old HFA and HFV samples. […] Further evidence of let-7g directed maturation was observed from known isoform changes accompanying cardiomyocyte maturation, such as shifts in myosin heavy chain (MYH6/MYH7)^29 (FIG. 13). […] Focusing on the 34 differentially spliced genes in common among H7-CM-1yr, let-7 OE and fetal samples (FIG. 4C), the inventors identified the single transcript of each showing the greatest absolute change in proportion between H7-CM day 20 and the above three samples (data not shown). […] The same pattern emerges from analysis of the relative expression levels of all 377 isoforms (data not shown) of these 34 genes again showing that the developmental chronology of the samples is well captured by principal component 1. In short, there are concerted and dynamic changes in splicing during maturation. The fact that both differential splicing and differential expression analyses cluster let-7 OE CMs with H71yr-CM and fetal samples, clearly strengthens the finding that let-7 is critical for maturation.
Total RNAs for HFA and HFV samples were extracted using RNAeasy mini kit (QIAGEN™)^7. Total RNAs for all other samples were extracted with MIRNEASY™ mini kit (QIAGEN™) and were further DNAse treated with DNA-free kit (AMBION™). RNA and Small RNA libraries were prepared independently using TRUSEQ™ library preparation kits (ILLUMINA™) following the manufacturer's protocols. […] Sequence data for miRNAs were analyzed using miRDeep2™ software^8. […] For mRNA sequencing analysis, mRNA reads from samples were mapped to hg19 reference genome using STAR version 2.3.010. BAM files produced by STAR were analyzed with Cufflinks version 2.1.1_11 run in de novo mode. […]
Gene and transcript abundance was estimated using Markov chain Monte Carlo to sample from a hierarchical Bayesian model. […] Under this model, estimates from transcripts with very low data are effectively shrunk towards each other to avoid spuriously highfold-change estimates that can occur when using simple read or fragment count estimates. Expression estimates, measured in transcripts per million (TPM), and adjusted using upper quantile normalization^12, were generated for the Ensembl 74 gene annotation database^13.
Separately, statistical significance of differential expression at the gene level was analyzed using DESeq^14. […]

B1: let-7g: human let-7 family miRNA, SEQ ID NO: 9, overexpressed from pLKO lentiviral pri-miR-let-7g construct (nucleic acid, listed as Homo sapiens)
chain: AGGCUGAGGUAGUAGUUUGUACAGUUUGAGGGUCUAUGAUACCACCCGGUACAGGAGAUAACUGUACAGGCCACUGCCUUGCCA
With B1 the “Targets of let-7 expression” value [1] was “repressed”, the “maturation markers RYR2, MYH7, KCNJ2 expression” value ([2]; RNA sequencing, compared to EV control) was “increased expression” and the “FA metabolism (gene expression, density plots)” value ([2]; in comparison to EV control) was “significantly up-regulated”. The “PI3/AKT/Insulin signaling (gene expression, density plots)” value ([2]; in comparison to EV control) was “significantly down-regulated” and the “position in dimension 1 of 2D-PCA (genes of 12 pathways)” value ([2]; vs. H7-CMs day 20 and 1 yr, EV control) was “closer to 1 yr than the EV and day 20 CMs”.
